Reference: US12630600B2 (MEDIMMUNE LIMITED, priority 2022, dated 2026)
Starred links: 1 amine or outer side, 2 acyl side, 3 side chain; linkers in the order of their positions; H or OH if unused. Non-standard residues stand in square brackets, D forms with d. Groups on a side chain read outwards from the residue. No end group written: not given here. *: point of attachment. C20 diacid = O=C(O)CCCCCCCCCCCCCCCCCCC(=O)*; C18 diacid = O=C(O)CCCCCCCCCCCCCCCCC(=O)*; γGlu = O=C(O)[C@H](CCC(=O)[*:2])N[*:1]; αMeF = C[C@](N)(Cc1ccccc1)C(=O)O; AEEA = NCCOCCOCC(=O)O; Aib = CC(C)(N)C(=O)O

B1: Peptide 517 (peptide)
peptide: H[Aib]QGTFTSDVSK[αMeF]LEAK([AEEA-AEEA-γGlu-γGlu-C18 diacid])AAREFIAWLLET-NH2
modifications: N-terminus assumed
SMILES: CC[C@H](C)[C@H](NC(=O)[C@H](Cc1ccccc1)NC(=O)[C@H](CCC(=O)O)NC(=O)[C@H](CCCNC(=N)N)NC(=O)[C@H](C)NC(=O)[C@H](C)NC(=O)[C@H](CCCCNC(=O)COCCOCCNC(=O)COCCOCCNC(=O)CC[C@H](NC(=O)CC[C@H](NC(=O)CCCCCCCCCCCCCCCCC(=O)O)C(=O)O)C(=O)O)NC(=O)[C@H](C)NC(=O)[C@H](CCC(=O)O)NC(=O)[C@H](CC(C)C)NC(=O)[C@](C)(Cc1ccccc1)NC(=O)[C@H](CCCCN)NC(=O)[C@H](CO)NC(=O)[C@@H](NC(=O)[C@H](CC(=O)O)NC(=O)[C@H](CO)NC(=O)[C@@H](NC(=O)[C@H](Cc1ccccc1)NC(=O)[C@@H](NC(=O)CNC(=O)[C@H](CCC(N)=O)NC(=O)C(C)(C)NC(=O)[C@@H](N)Cc1c[nH]cn1)[C@@H](C)O)[C@@H](C)O)C(C)C)C(=O)N[C@@H](C)C(=O)N[C@@H](Cc1c[nH]c2ccccc12)C(=O)N[C@@H](CC(C)C)C(=O)N[C@@H](CC(C)C)C(=O)N[C@@H](CCC(=O)O)C(=O)N[C@H](C(N)=O)[C@@H](C)O
B2: Peptide 136 (peptide)
peptide: H[Aib]QGTFTSDVSK[αMeF]LDSK([γGlu-γGlu-AEEA-AEEA-γGlu-γGlu-C18 diacid])RARDFVRWLLE[Aib]G-OH
modifications: N-terminus assumed
SMILES: CC(C)C[C@H](NC(=O)[C@H](Cc1c[nH]c2ccccc12)NC(=O)[C@H](CCCNC(=N)N)NC(=O)[C@@H](NC(=O)[C@H](Cc1ccccc1)NC(=O)[C@H](CC(=O)O)NC(=O)[C@H](CCCNC(=N)N)NC(=O)[C@H](C)NC(=O)[C@H](CCCNC(=N)N)NC(=O)[C@H](CCCCNC(=O)CC[C@H](NC(=O)CC[C@H](NC(=O)COCCOCCNC(=O)COCCOCCNC(=O)CC[C@H](NC(=O)CC[C@H](NC(=O)CCCCCCCCCCCCCCCCC(=O)O)C(=O)O)C(=O)O)C(=O)O)C(=O)O)NC(=O)[C@H](CO)NC(=O)[C@H](CC(=O)O)NC(=O)[C@H](CC(C)C)NC(=O)[C@](C)(Cc1ccccc1)NC(=O)[C@H](CCCCN)NC(=O)[C@H](CO)NC(=O)[C@@H](NC(=O)[C@H](CC(=O)O)NC(=O)[C@H](CO)NC(=O)[C@@H](NC(=O)[C@H](Cc1ccccc1)NC(=O)[C@@H](NC(=O)CNC(=O)[C@H](CCC(N)=O)NC(=O)C(C)(C)NC(=O)[C@@H](N)Cc1c[nH]cn1)[C@@H](C)O)[C@@H](C)O)C(C)C)C(C)C)C(=O)N[C@@H](CC(C)C)C(=O)N[C@@H](CCC(=O)O)C(=O)NC(C)(C)C(=O)NCC(=O)O
B3: Peptide 137 (peptide)
peptide: H[Aib]QGTFTSDVSK[αMeF]LDSK([γGlu-γGlu-AEEA-AEEA-γGlu-γGlu-C18 diacid])RAQDFVRWLLEG[Aib]-OH
modifications: N-terminus assumed
SMILES: CC(C)C[C@H](NC(=O)[C@H](CC(C)C)NC(=O)[C@H](Cc1c[nH]c2ccccc12)NC(=O)[C@H](CCCNC(=N)N)NC(=O)[C@@H](NC(=O)[C@H](Cc1ccccc1)NC(=O)[C@H](CC(=O)O)NC(=O)[C@H](CCC(N)=O)NC(=O)[C@H](C)NC(=O)[C@H](CCCNC(=N)N)NC(=O)[C@H](CCCCNC(=O)CC[C@H](NC(=O)CC[C@H](NC(=O)COCCOCCNC(=O)COCCOCCNC(=O)CC[C@H](NC(=O)CC[C@H](NC(=O)CCCCCCCCCCCCCCCCC(=O)O)C(=O)O)C(=O)O)C(=O)O)C(=O)O)NC(=O)[C@H](CO)NC(=O)[C@H](CC(=O)O)NC(=O)[C@H](CC(C)C)NC(=O)[C@](C)(Cc1ccccc1)NC(=O)[C@H](CCCCN)NC(=O)[C@H](CO)NC(=O)[C@@H](NC(=O)[C@H](CC(=O)O)NC(=O)[C@H](CO)NC(=O)[C@@H](NC(=O)[C@H](Cc1ccccc1)NC(=O)[C@@H](NC(=O)CNC(=O)[C@H](CCC(N)=O)NC(=O)C(C)(C)NC(=O)[C@@H](N)Cc1c[nH]cn1)[C@@H](C)O)[C@@H](C)O)C(C)C)C(C)C)C(=O)N[C@@H](CCC(=O)O)C(=O)NCC(=O)NC(C)(C)C(=O)O
B4: Peptide 138 (peptide)
peptide: H[Aib]QGTFTSDVSK[αMeF]LDSK([γGlu-γGlu-AEEA-AEEA-γGlu-γGlu-C18 diacid])RAQDFVRWLLE[Aib]G-OH
modifications: N-terminus assumed
SMILES: CC(C)C[C@H](NC(=O)[C@H](Cc1c[nH]c2ccccc12)NC(=O)[C@H](CCCNC(=N)N)NC(=O)[C@@H](NC(=O)[C@H](Cc1ccccc1)NC(=O)[C@H](CC(=O)O)NC(=O)[C@H](CCC(N)=O)NC(=O)[C@H](C)NC(=O)[C@H](CCCNC(=N)N)NC(=O)[C@H](CCCCNC(=O)CC[C@H](NC(=O)CC[C@H](NC(=O)COCCOCCNC(=O)COCCOCCNC(=O)CC[C@H](NC(=O)CC[C@H](NC(=O)CCCCCCCCCCCCCCCCC(=O)O)C(=O)O)C(=O)O)C(=O)O)C(=O)O)NC(=O)[C@H](CO)NC(=O)[C@H](CC(=O)O)NC(=O)[C@H](CC(C)C)NC(=O)[C@](C)(Cc1ccccc1)NC(=O)[C@H](CCCCN)NC(=O)[C@H](CO)NC(=O)[C@@H](NC(=O)[C@H](CC(=O)O)NC(=O)[C@H](CO)NC(=O)[C@@H](NC(=O)[C@H](Cc1ccccc1)NC(=O)[C@@H](NC(=O)CNC(=O)[C@H](CCC(N)=O)NC(=O)C(C)(C)NC(=O)[C@@H](N)Cc1c[nH]cn1)[C@@H](C)O)[C@@H](C)O)C(C)C)C(C)C)C(=O)N[C@@H](CC(C)C)C(=O)N[C@@H](CCC(=O)O)C(=O)NC(C)(C)C(=O)NCC(=O)O
B5: Peptide 141 (peptide)
peptide: H[Aib]QGTFTSDVSK[αMeF]LDSK([AEEA-AEEA-γGlu-C18 diacid])RAQDFVAWLLE[Aib]G-OH
modifications: N-terminus assumed
SMILES: CC(C)C[C@H](NC(=O)[C@H](Cc1c[nH]c2ccccc12)NC(=O)[C@H](C)NC(=O)[C@@H](NC(=O)[C@H](Cc1ccccc1)NC(=O)[C@H](CC(=O)O)NC(=O)[C@H](CCC(N)=O)NC(=O)[C@H](C)NC(=O)[C@H](CCCNC(=N)N)NC(=O)[C@H](CCCCNC(=O)COCCOCCNC(=O)COCCOCCNC(=O)CC[C@H](NC(=O)CCCCCCCCCCCCCCCCC(=O)O)C(=O)O)NC(=O)[C@H](CO)NC(=O)[C@H](CC(=O)O)NC(=O)[C@H](CC(C)C)NC(=O)[C@](C)(Cc1ccccc1)NC(=O)[C@H](CCCCN)NC(=O)[C@H](CO)NC(=O)[C@@H](NC(=O)[C@H](CC(=O)O)NC(=O)[C@H](CO)NC(=O)[C@@H](NC(=O)[C@H](Cc1ccccc1)NC(=O)[C@@H](NC(=O)CNC(=O)[C@H](CCC(N)=O)NC(=O)C(C)(C)NC(=O)[C@@H](N)Cc1c[nH]cn1)[C@@H](C)O)[C@@H](C)O)C(C)C)C(C)C)C(=O)N[C@@H](CC(C)C)C(=O)N[C@@H](CCC(=O)O)C(=O)NC(C)(C)C(=O)NCC(=O)O
B6: Peptide 142 (peptide)
peptide: H[Aib]QGTFTSDVSK[αMeF]LDSK([AEEA-AEEA-γGlu-C18 diacid])RARDFVAWLLE[Aib]G-OH
modifications: N-terminus assumed
SMILES: CC(C)C[C@H](NC(=O)[C@H](Cc1c[nH]c2ccccc12)NC(=O)[C@H](C)NC(=O)[C@@H](NC(=O)[C@H](Cc1ccccc1)NC(=O)[C@H](CC(=O)O)NC(=O)[C@H](CCCNC(=N)N)NC(=O)[C@H](C)NC(=O)[C@H](CCCNC(=N)N)NC(=O)[C@H](CCCCNC(=O)COCCOCCNC(=O)COCCOCCNC(=O)CC[C@H](NC(=O)CCCCCCCCCCCCCCCCC(=O)O)C(=O)O)NC(=O)[C@H](CO)NC(=O)[C@H](CC(=O)O)NC(=O)[C@H](CC(C)C)NC(=O)[C@](C)(Cc1ccccc1)NC(=O)[C@H](CCCCN)NC(=O)[C@H](CO)NC(=O)[C@@H](NC(=O)[C@H](CC(=O)O)NC(=O)[C@H](CO)NC(=O)[C@@H](NC(=O)[C@H](Cc1ccccc1)NC(=O)[C@@H](NC(=O)CNC(=O)[C@H](CCC(N)=O)NC(=O)C(C)(C)NC(=O)[C@@H](N)Cc1c[nH]cn1)[C@@H](C)O)[C@@H](C)O)C(C)C)C(C)C)C(=O)N[C@@H](CC(C)C)C(=O)N[C@@H](CCC(=O)O)C(=O)NC(C)(C)C(=O)NCC(=O)O
B7: Peptide 143 (peptide)
peptide: H[Aib]QGTFTSDVSK[αMeF]LDSK([AEEA-AEEA-γGlu-C18 diacid])RARDFVQWLLE[Aib]G-OH
modifications: N-terminus assumed
SMILES: CC(C)C[C@H](NC(=O)[C@H](Cc1c[nH]c2ccccc12)NC(=O)[C@H](CCC(N)=O)NC(=O)[C@@H](NC(=O)[C@H](Cc1ccccc1)NC(=O)[C@H](CC(=O)O)NC(=O)[C@H](CCCNC(=N)N)NC(=O)[C@H](C)NC(=O)[C@H](CCCNC(=N)N)NC(=O)[C@H](CCCCNC(=O)COCCOCCNC(=O)COCCOCCNC(=O)CC[C@H](NC(=O)CCCCCCCCCCCCCCCCC(=O)O)C(=O)O)NC(=O)[C@H](CO)NC(=O)[C@H](CC(=O)O)NC(=O)[C@H](CC(C)C)NC(=O)[C@](C)(Cc1ccccc1)NC(=O)[C@H](CCCCN)NC(=O)[C@H](CO)NC(=O)[C@@H](NC(=O)[C@H](CC(=O)O)NC(=O)[C@H](CO)NC(=O)[C@@H](NC(=O)[C@H](Cc1ccccc1)NC(=O)[C@@H](NC(=O)CNC(=O)[C@H](CCC(N)=O)NC(=O)C(C)(C)NC(=O)[C@@H](N)Cc1c[nH]cn1)[C@@H](C)O)[C@@H](C)O)C(C)C)C(C)C)C(=O)N[C@@H](CC(C)C)C(=O)N[C@@H](CCC(=O)O)C(=O)NC(C)(C)C(=O)NCC(=O)O

What follows are binders tested against human GLP-1 receptor (human, UniProt P43220) (assay: cell-based or functional assay).

| Binder | cAMP production EC50 |
| --- | --- |
| B1 | 0.146 nM |
| B2 | 0.0452 nM |
| B3 | 0.143 nM |
| B4 | 0.104 nM |
| H[Aib]QGTFTSDVSK[αMeF]LDSK([γGlu-γGlu-AEEA-AEEA-γGlu-γGlu-C20 diacid])RAQDFVRWLLE[Aib]G-OH [Peptide 139] | 0.63 nM |
| B5 | 0.264 nM |
| B6 | 0.0594 nM |
| B7 | 0.0191 nM |

These binders were tested against human glucagon receptor (human, UniProt P47871) (assay: cell-based or functional assay).

| Binder | cAMP production EC50 |
| --- | --- |
| B1 | 0.738 nM |
| B2 | 0.509 nM |
| B3 | 0.268 nM |
| B4 | 0.184 nM |
| H[Aib]QGTFTSDVSK[αMeF]LDSK([γGlu-γGlu-AEEA-AEEA-γGlu-γGlu-C20 diacid])RAQDFVRWLLE[Aib]G-OH [Peptide 139] | 0.984 nM |
| B5 | 0.392 nM |
| B6 | 0.108 nM |
| B7 | 0.0326 nM |
